This data set can be described thus: protein stability index of a GFP-peptide fusion (GPS, HEK-293T) (PSI 1-6); higher = more stable.
The mark [1] stands for this setting: treatment: DMSO, c terminus: a fixed tail appended.
[2] abbreviates: treatment: MLN4924 1 uM, 8 h, c terminus: a fixed tail appended.
The mark [3] stands for this setting: treatment: DMSO, c terminus: native.
Where [4] appears, read: treatment: MLN4924 1 uM, 8 h, c terminus: native.

± gives the standard deviation.

From the supplement of paper PMC10567573 come the findings set out here.
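Note: 24-mer peptide tiles fused after GFP, lentivirally expressed, FACS-sorted into six equal bins by GFP/DsRed ratio, decoded by Illumina sequencing, PSI is the read-weighted mean bin number.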

Regarding VTLLVRGVCYSESQSSASQPRLSY [CLCN6], the protein stability index was 2.83 ± 0.41 under setting [1] and 2.29 ± 0.6 under setting [2].
Take VTRQPRNLQDLCRIKIRQCIGLQN [ASB7]: the protein stability index is, setting by setting: under setting [1], 3.4 ± 0.56; under setting [2], 3.35 ± 0.39.
On to VVGAKKIYAHRVILSACSPYFRAM [KLHL20], for which the protein stability index is 2.78 ± 0.26 under setting [1] and 2.41 ± 0.84 under setting [2].
The matching figures for VYYIFERLCAPLFRNIKQEPFSAR [SOAT1]: 2.5 ± 0.71 and 2.61 ± 0.5.
As for WALGVCNNSWIRKNSTMVNSEDIF [TRIM43], the protein stability index is, setting by setting: under setting [1], 2.03 ± 0.52; under setting [2], 2.12 ± 0.31.
The matching figures for WATIEGLVELLQPFKQVAEMLSAS [ZBED1]: 3.01 ± 0.76 and 2.94 ± 0.8.
With WDLNMENRPIETYQVHDYLRSKLC [PPP2R2B], the protein stability index is, setting by setting: under setting [1], 2.65 ± 0.34; under setting [2], 2.72 ± 0.29.
With WEEEKALWVEERALLEGEKALWED [CCDC70], the protein stability index reads like this: under setting [1], 5.07 ± 0.28; under setting [2], 5.22 ± 0.13.
Taken in the same sequence, the figures for WEHSAPQRLPRSAPPGSLVTKVTA [PCDHGC5] were 3.84 ± 0.092 and 4.02 ± 0.18.
Take WIGKQLPTPVGAVQQDPALSSNRE [CSNK1G3]: the protein stability index is 4.11 ± 0.19 under setting [1] and 4.48 ± 0.26 under setting [2].
With WKDIIHNPQALSPQFTGILQLLQS [INTS3], the protein stability index is 2.11 ± 0.34 under setting [1] and 2.14 ± 0.23 under setting [2].
Taken in the same sequence, the figures for WKVRYDTFIVSCKFSPDGKYVVSG [WDR88] were 2.31 ± 0.45 and 2.49 ± 0.14.
Taken in the same sequence, the figures for WLDNPERWNKVKMVVSREEVELAY [SEPHS2] were 2.87 ± 0.31 and 2.46 ± 0.31.
Taken in the same sequence, the figures for WLHCVCVVGFDLELGQAVEVIYPQ [DENND6A] were 2.66 ± 0.95 and 2.46 ± 0.085.
As to WQVLCMLSLCCWGWVSGQLRYSVV [PCDHGC5], the protein stability index was 3.24 ± 0.69 under setting [1] and 3.04 ± 0.35 under setting [2].
Taken in the same sequence, the figures for WRYVSSLPQPLAAHAGAVHNGKIY [KLHL14] were 2.51 ± 0.26 and 2.73 ± 0.078.
On to YAKLAAVAVFFIMLIVYVRFWWL [SEC22B], for which the protein stability index is 2.52 ± 0.081 under setting [3] and 2.63 ± 0.075 under setting [4].
On to YAKVKEFIVDILQFLDIGPDVTRV [MATN2], for which the protein stability index is, setting by setting: under setting [1], 3.84 ± 0.32; under setting [2], 3.81 ± 0.084.
Taken in the same sequence, the figures for YDLDKIIELNGGQPPLTYKRFQTL [CRY1] were 2.69 ± 0.38 and 2.77 ± 0.32.
Taken in the same sequence, the figures for YDPKENKWTRVASMSTRRLGVAVA [KLHL20] were 2.29 ± 0.27 and 2.38 ± 0.28.
The matching figures for YEENEGAGPYLLNGSYLELSSDRV [ADAMTSL2]: 3.88 ± 0.33 and 4.07 ± 0.46.
Regarding YEKFKLYLTIILILISFTCRFLLN [TMEM120A], the protein stability index reads like this: under setting [1], 3.05 ± 0.21; under setting [2], 2.91 ± 0.39.
The matching figures for YGICREPVGLVMEYMETGSLEKLL [RIPK4]: 2.29 ± 0.26 and 2.22 ± 0.4.
The matching figures for YGRIVEVLLMKDRETNKSRGFAFV [RBMX]: 2.9 ± 0.44 and 2.48 ± 0.59.
Turning to YGYVYFRQVRDKTLKRGYFQKSLV [DENND6A], the protein stability index was determined as 2.56 ± 0.46 under setting [1] and 2.1 ± 0.16 under setting [2].
In the case of YINLLNYMDRFTVAGVLPDIEQFF [SPNS1], the protein stability index is 2.93 ± 0.63 under setting [1] and 2.84 ± 0.64 under setting [2].
Taken in the same sequence, the figures for YKIVKPLWTSFIQSVSYSKLLSVI [P2RY14] were 2.06 ± 0.16 and 2.36 ± 0.39.
Taken in the same sequence, the figures for YKMFASRRKQRYWPFSMDCTGTEA [LOXL2] were 2.3 ± 0.27 and 2.15 ± 0.33.
Taken in the same sequence, the figures for YLSKTYCVDATRETNRLGRLINHS [KMT5A] were 2.35 ± 0.046 and 2.62 ± 0.25.
Turning to YNRGEHPIFVNSPTLDAPGGRALV [SMAD6], the protein stability index by setting is: under setting [1], 3.13 ± 0.35; under setting [2], 3.25 ± 0.34.
The matching figures for YNSPQFKKTMSTFHNLVSLNLNYN [FBXO39]: 2.25 ± 0.32 and 2.12 ± 0.4.
Turning to YPHCTGISQQDPESDSQGQGNGLF [ZC2HC1C], the protein stability index worked out at 3.82 ± 0.23 under setting [1] and 4.43 ± 0.48 under setting [2].
Taken in the same sequence, the figures for YQNSIDDRLLVERIFAQYMVPHNL [PDS5B] were 2.21 ± 0.55 and 2.46 ± 0.79.
Taken in the same sequence, the figures for YSALREESAKDWETSPLPGMLAPA [PPFIA4] were 4.26 ± 0.23 and 4.04 ± 0.21.
As for YSLRNKEFKSALCKIVRRTISLL [OR10K2], the protein stability index runs as follows: under setting [3], 2.96 ± 0.64; under setting [4], 2.93 ± 0.21.
YVQWSLPFIVFGATGLTSGLLSLL [SLC22A15]: the protein stability index reads like this: under setting [1], 3.27 ± 0.45; under setting [2], 2.94 ± 0.68.
The matching figures for YVYKPVMNQTCCPQYTIRCRPLQF [ATE1]: 2.65 ± 0.64 and 2.3 ± 0.33.
